T1: recombinant human IL-23 (human, UniProt Q9NPF7 20-189; P29460 23-328)
T1 construct: also called hIL-23
T1 sequence 1: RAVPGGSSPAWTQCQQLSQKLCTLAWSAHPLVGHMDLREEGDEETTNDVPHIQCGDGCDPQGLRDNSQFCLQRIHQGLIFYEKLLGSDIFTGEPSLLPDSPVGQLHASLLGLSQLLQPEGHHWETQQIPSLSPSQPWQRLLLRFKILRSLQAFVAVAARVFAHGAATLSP
T1 sequence 2: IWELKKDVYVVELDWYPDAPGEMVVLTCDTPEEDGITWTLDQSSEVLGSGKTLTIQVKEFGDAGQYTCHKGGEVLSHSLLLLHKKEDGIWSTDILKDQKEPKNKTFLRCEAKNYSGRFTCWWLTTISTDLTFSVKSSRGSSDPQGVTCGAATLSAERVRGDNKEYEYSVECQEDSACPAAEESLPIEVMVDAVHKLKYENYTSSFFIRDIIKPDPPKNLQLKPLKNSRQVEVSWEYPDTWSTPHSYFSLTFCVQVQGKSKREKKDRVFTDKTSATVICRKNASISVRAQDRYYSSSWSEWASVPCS

B1: A5M0 (antibody, human IgG1, kappa, V domains shown)
VH: QVQLVQSGAEVKKPGSSVKVSCKASGYTFTSYGITWVRQAPGQGLEWMGENYPRSGNTYYNEKFKGRVTITADKSTSTAYMELSSLRSEDTAVYYCARAEFISTVVAPYYYALDYWGQGTLVTVSS
VL: DIVMTQSPDSLAVSLGERATINCKASKKVTIFGSISALHWYQQKPGQPPKLIYNGAKLESGVPDRFSGSGSGTDFTLTISSLQAEDVAVYYCLQNKEVPYTFGGGTKVEIKR
notes: Full length chains
B2: A7M3 (antibody, human IgG1, kappa, V domains shown)
VH: B1 VH with N51D, A99S
VL: B1 VL with I35T
notes: Full length chains
B3: A6M0 (antibody, human IgG1, kappa, V domains shown)
VH: B1 VH with A99V
VL: B1 VL
notes: Full length chains
B4: A9M3 (antibody, V domains shown)
VH: B1 VH with N51D, A99V
VL: DIVMTQSPDSLAVSLGERATINCKASKKVTIFGSTSALHWYQQKPGQPPKLIYNGAKLESGVPDRFSGSGSGTDFTLTISSLQAEDVAVYYCLQNKEVPYTFGGGTKVEIK
B5: A8M3 (antibody, V domains shown)
VH: B1 VH with N51D
VL: B4 VL
B6: A12M3 (antibody, V domains shown)
VH: B1 VH with T30A, V93M, A99V
VL: B4 VL
B7: A11M4 (antibody, V domains shown)
VH: B1 VH with T30A, V93M
VL: B4 VL with L58P
B8: A12.5M4 (antibody, V domains shown)
VH: B1 VH with T30A, A99V
VL: B4 VL with L58P
B9: A10.5M4 (antibody, V domains shown)
VH: B1 VH with T30A, A99S
VL: B4 VL with L58P
B10: A11M3 (antibody, V domains shown)
VH: B1 VH with T30A, V93M
VL: B4 VL
B11: A12M4 (antibody, V domains shown)
VH: B1 VH with T30A, V93M, A99V
VL: B4 VL with L58P
B12: A11.5M4 (antibody, V domains shown)
VH: B1 VH with T30A
VL: B4 VL with L58P
B13: A11.5M3 (antibody, V domains shown)
VH: B1 VH with T30A
VL: B4 VL

Substitutions are numbered along the chain they refer to.

The target in one experiment is T1, recombinant human IL-23. Description: SPR (Biacore T100), purified antibody captured on anti-human IgG, IL-23 analyte, 1:1 model. On the procedure:
(§1) Biacore analysis was carried out using a capture surface on a CM5 chip. Anti-human IgG (BR-1008-39) was used as the capturing agent. Anti-human IgG was coupled to a CM5 biosensor chip by primary amine coupling. Humanized antibody was captured on this immobilised surface and defined concentrations of IL-23 were passed over this captured surface. An injection of buffer over the captured antibody surface was used for double-referencing. […] T100 Biacore machine was used to generate the data; all runs were carried out at 25° C. using HBS EP. Data was analysed using the software inherent to the machine and fitted to the 1:1 model of binding. Tables 7 and 8 detail the IL-23 binding analysis carried out on the 8C92H6.HC1LC1 chimera and selected humanized variants in two separate experiments. Data presented in Tables 7 and 8 are from purified antibody samples. The data shown for the humanized variants is representative of a number of runs. The chimeric mAb (8C9H6.HC1LC1) was only run once in each experiment, so data shown for this mAb is from that one run.
(Surface plasmon resonance follows binding to a sensor surface in real time, without labels.)
Take B1: the Kd (as a rule, the equilibrium constant for the complex coming apart) came to 0.103 nM; the koff (in general, the rate constant with which the complex falls apart) was 0.000171 s⁻¹; the kon (in general, the second-order rate constant of association) came out at 1.65e+06 M⁻¹ s⁻¹.
The corresponding values for B2 are 0.144 nM, 0.000145 s⁻¹ and 1.01e+06 M⁻¹ s⁻¹.
The matching figures for B3: 0.101 nM, 0.000298 s⁻¹ and 2.95e+06 M⁻¹ s⁻¹.
The corresponding values for B4 are 0.065 nM, 0.000171 s⁻¹ and 2.64e+06 M⁻¹ s⁻¹.
Take B5: the Kd was determined as 0.08 nM, the koff worked out at 0.000135 s⁻¹ and the kon was 1.67e+06 M⁻¹ s⁻¹.

For a further experiment, the target named is T1, recombinant human IL-23. Description: IL-23/IL-23R inhibition ELISA (optimised protocol, OD450): plate coated with human IL23R Fc chimera, antibody pre-incubated with constant human IL-23, bound IL-23 detected with biotinylated anti-human IL-12; purified antibody. On the procedure:
Optimised protocol: Plates were coated with human IL23R Fc chimera at […] (phosphate buffered saline). 50 μl/well of this mixture was incubated overnight at 4° C. The plates were then washed three times with Phosphate Buffered Saline with 0.05% Tween 20 (PBST). Plates were blocked with 4% skim milk powder (Fluka BioChemika #70166) PBST 100 μl/well for a minimum of 1 hour at room temperature. The plates were then washed three times with Phosphate Buffered Saline+0.05% Tween 20 (PBST). Various concentrations of antibody were incubated in a separate plate with a constant concentration of IL-23 for 1 hour at room temperature. 50 ul of each mixture were transferred to the assay plate and incubated at RT for 1 hr. They were then washed three times with Phosphate Buffered Saline+0.05% Tween 20 (PBST). Bound IL23 was detected by anti human 1L12 Biotin labelled Ab (R&D systems BAF219) diluted to 100 ng/ml in 4% skim milk powder (Fluka BioChemika #70166) PBST. 50 μl/well of the biotinylated antibody was added and incubated at RT for 1 hour. The plates were then washed three times with Phosphate Buffered Saline+0.05% Tween 20 (PBST). SA HRP (GE healthcare RPN4401) was diluted 1/4000 in 4% skim m ilk powder (Fluka BioChemika #70166) PBS, 50 μl/well was added to the plates. The plates were then washed three times with Phosphate Buffered Saline+0.05% Tween 20 (PBST). 50 ul/well of TMB was added to the plates and incubated at RT for 15 min. 25 μl/well of 3 MH₂SO₄ was added to the wells already containing TMB. The plate was read at OD450 nm using the SOftmaxPRO versamax plate reader.
(An ELISA detects its analyte on a solid surface through an enzyme-linked reagent.)
B1: the “IC50 (read off the curve)” value was ~0.2 nM.
Same read-out and setting: to B2 belongs ~0.2 nM; to B3, ~0.2 nM; to B4, ~0.1 nM.
Still for that read-out and setting: for B5 the value was ~0.2 nM.

For a further experiment, the target named is T1, recombinant human IL-23. As to the kind of experiment: SPR (Biacore T100), tissue culture supernatant antibody captured on anti-human IgG, IL-23 analyte. On the procedure:
as §1, with “Data presented in Tables 7 and 8 are from purified antibody samples.” left out
As for B6, the Kd came to 0.0794 nM, the koff was 0.000202 s⁻¹ and the kon is 2.54e+06 M⁻¹ s⁻¹.
The matching figures for B7: 0.0444 nM, 9.18e-05 s⁻¹ and 2.07e+06 M⁻¹ s⁻¹.
The corresponding values for B8 are 0.0483 nM, 0.000151 s⁻¹ and 3.12e+06 M⁻¹ s⁻¹.
The corresponding values for B9 are 0.0416 nM, 8.64e-05 s⁻¹ and 2.08e+06 M⁻¹ s⁻¹.
Consider B10, for which the Kd was 0.0671 nM, the koff is 9.57e-05 s⁻¹ and the kon was determined as 1.43e+06 M⁻¹ s⁻¹.
The matching figures for B11: 0.0553 nM, 0.000163 s⁻¹ and 2.94e+06 M⁻¹ s⁻¹.
B12: the Kd came to 0.0665 nM, the koff turned out to be 9.62e-05 s⁻¹ and the kon was found to be 1.45e+06 M⁻¹ s⁻¹.
The corresponding values for B13 are 0.0606 nM, 9.38e-05 s⁻¹ and 1.55e+06 M⁻¹ s⁻¹.

The values are drawn from US20090123479A1 (published 2009).
